target: KGF receptor (membrane preparations from Balb/MK mouse epidermal keratinocytes) (mouse) (UniProt P21803); test: radioreceptor competition against 125I-labeled E. coli KGF, Balb/MK membrane preparations
Sequence (P21803 22-821): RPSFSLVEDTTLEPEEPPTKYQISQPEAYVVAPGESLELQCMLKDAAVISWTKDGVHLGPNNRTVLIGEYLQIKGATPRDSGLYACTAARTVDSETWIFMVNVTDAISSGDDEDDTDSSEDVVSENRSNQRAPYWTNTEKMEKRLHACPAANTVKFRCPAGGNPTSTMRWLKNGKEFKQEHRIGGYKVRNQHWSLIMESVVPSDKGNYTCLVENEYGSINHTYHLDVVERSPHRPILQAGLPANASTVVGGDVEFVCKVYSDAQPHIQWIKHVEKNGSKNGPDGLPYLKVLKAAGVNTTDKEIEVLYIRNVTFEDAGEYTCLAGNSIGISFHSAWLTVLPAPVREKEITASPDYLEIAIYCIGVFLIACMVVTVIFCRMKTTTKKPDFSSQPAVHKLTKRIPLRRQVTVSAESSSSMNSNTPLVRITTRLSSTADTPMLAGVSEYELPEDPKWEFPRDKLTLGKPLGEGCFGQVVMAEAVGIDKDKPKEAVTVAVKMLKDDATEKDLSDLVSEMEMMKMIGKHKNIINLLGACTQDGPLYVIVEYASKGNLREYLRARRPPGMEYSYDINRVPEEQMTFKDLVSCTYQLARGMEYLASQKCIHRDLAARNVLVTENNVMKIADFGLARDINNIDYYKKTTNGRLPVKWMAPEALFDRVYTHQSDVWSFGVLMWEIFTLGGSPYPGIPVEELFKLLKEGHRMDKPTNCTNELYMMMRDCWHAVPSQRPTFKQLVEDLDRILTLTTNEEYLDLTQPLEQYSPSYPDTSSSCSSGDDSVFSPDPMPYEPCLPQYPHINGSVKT

**Q.** Which KGF concentration to compete receptor binding with I^125-labeled KGF at 60% uncompetition rate does the source give for “E. coli-derived, full-length native KGF (keratinocyte growth factor) (ligand)” here?
**A.** 65.8 ng/mL

**Q.** How did the KGF concentration to compete receptor binding with I^125-labeled KGF at 60% uncompetition rate turn out when “KGF-a (CHO-derived glycosylated recombinant KGF, 25-29 kDa form) (ligand)” was run?
**A.** 93.5 ng/mL

**Q.** With “KGF-b (CHO-derived N-terminally truncated unglycosylated KGF, about 17 kDa, cleaved at Arg23-Ser24) (ligand)” as the substance, how does the KGF concentration to compete receptor binding with I^125-labeled KGF at 60% uncompetition rate read?
**A.** 89.1 ng/mL
